This test concerns the target T1, mouse C-KIT (SB, Lot #LC05DE2304) (mouse, UniProt P05532 25-523).
T1 chain: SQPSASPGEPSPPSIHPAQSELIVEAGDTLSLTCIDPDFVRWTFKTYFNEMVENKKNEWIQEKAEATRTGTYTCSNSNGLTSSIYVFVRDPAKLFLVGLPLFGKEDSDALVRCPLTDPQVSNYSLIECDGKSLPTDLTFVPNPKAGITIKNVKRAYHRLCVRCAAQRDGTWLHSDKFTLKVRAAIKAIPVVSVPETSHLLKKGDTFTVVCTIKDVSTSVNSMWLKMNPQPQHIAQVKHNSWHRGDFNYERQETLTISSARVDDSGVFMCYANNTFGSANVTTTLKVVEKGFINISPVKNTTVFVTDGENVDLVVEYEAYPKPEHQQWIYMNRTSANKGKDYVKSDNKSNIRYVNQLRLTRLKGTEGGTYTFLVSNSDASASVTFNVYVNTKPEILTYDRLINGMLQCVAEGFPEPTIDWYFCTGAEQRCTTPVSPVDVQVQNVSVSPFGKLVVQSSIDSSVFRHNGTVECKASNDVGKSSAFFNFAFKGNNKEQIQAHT
Put plainly: SPR.

B1: 2G4 antibody (antibody, V domains shown)
VH: QVQLVESGGGVVQPGRSLRLSCAASGFTFSRYGMHWVRQAPGKGLEWVAVIWYDGTNKDYTDSVRGRFTISRDNSKNTLYLQMNSLRAEDTAVYYCAREDWAEAFDMWGQGTTVTVSS
VL: not shown
Usually Kd stands for the constant that tells how readily two partners part at equilibrium. A low value points to a tighter complex. B1 had an equilibrium dissociation constant (Kd) of 11.5 nM.
